This is an account of results in patent WO2018095932A1 (dated 2018).

Experiment [1] has as its target T1, human FGFR1b-IIIc extracellular domain with a His tag (human, UniProt P11362 22-376).
T1 construct: also called huFGFR1b-IIIc; FGFR1-IIIc
T1 sequence: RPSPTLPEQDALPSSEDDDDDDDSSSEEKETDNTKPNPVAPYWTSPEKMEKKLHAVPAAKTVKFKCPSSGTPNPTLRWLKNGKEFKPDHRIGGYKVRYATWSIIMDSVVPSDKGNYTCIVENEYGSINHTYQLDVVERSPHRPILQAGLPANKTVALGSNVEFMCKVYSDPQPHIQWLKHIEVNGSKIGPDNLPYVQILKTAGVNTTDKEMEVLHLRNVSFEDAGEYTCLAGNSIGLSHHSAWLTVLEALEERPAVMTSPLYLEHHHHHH
Briefly: ELISA, IgG1 format.

Experiment [2] has as its target T2, human FGFR1b-IIIb extracellular domain with a His tag (human).
T2 construct: also called huFGFR1b-IIIb; FGFR1-IIIb
T2 chain: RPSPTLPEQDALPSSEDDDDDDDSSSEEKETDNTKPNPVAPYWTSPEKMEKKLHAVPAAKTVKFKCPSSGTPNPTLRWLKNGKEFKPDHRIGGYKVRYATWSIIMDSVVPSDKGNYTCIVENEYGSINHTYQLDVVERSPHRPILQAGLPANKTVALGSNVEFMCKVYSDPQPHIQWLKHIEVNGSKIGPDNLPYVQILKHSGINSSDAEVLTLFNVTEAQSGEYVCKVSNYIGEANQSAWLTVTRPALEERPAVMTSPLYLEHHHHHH
Briefly: ELISA, IgG1 format.

For experiment [3], the target named is T3, human FGFR1 (FGFR1b-IIIb or FGFR1b-IIIc, not stated which) (human, UniProt P11362 22-376).
T3 chain: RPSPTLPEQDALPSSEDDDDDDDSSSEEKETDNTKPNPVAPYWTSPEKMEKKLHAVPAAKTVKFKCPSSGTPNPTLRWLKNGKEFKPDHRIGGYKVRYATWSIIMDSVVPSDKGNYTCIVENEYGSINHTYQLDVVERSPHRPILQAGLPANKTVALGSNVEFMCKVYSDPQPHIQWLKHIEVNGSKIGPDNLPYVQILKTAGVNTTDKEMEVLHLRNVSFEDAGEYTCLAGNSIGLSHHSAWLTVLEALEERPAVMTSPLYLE
Briefly: ELISA on coated human FGFR1b (IIIb or IIIc, not stated which). On the technique in general: An ELISA detects its analyte on a solid surface through an enzyme-linked reagent.

Experiment [4] deals with T3, human FGFR1 (FGFR1b-IIIb or …). Briefly: ELISA on coated human FGFR1b (IIIb or IIIc, not stated which), IgG1 format.
Experiment [5] addresses T1, human FGFR1b-IIIc extracellular domain …. Briefly: SPR (BIAcore 4000), antibody captured by anti-human Fc, His-tagged FGFR1 injected. (In SPR one partner is held on a chip, and binding of the other changes the refractive index at the surface.)
Experiment [6] addresses T2, human FGFR1b-IIIb extracellular domain …. Described as above.
Experiment [7] concerns the target FGFR1 of NCI-H520 cells (UniProt P11362 22-822). Briefly: cell-based or functional assay.
Experiment [8] deals with T4, Human FGFR1 D2-His6 (human, UniProt P11362 22-254).
T4 construct: also called D2 domain; wild-type D2
T4 sequence: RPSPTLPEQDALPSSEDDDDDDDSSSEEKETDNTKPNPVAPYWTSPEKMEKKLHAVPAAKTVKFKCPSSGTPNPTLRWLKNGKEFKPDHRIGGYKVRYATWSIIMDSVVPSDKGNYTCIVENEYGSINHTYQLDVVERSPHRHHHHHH
Briefly: ELISA.

The target in experiment [9] is T2, human FGFR1b-IIIb extracellular domain …. Briefly: ELISA.

Changes are numbered by the printed parent chain.

Chain of FGFR1 of NCI-H520 cells (P11362 22-822): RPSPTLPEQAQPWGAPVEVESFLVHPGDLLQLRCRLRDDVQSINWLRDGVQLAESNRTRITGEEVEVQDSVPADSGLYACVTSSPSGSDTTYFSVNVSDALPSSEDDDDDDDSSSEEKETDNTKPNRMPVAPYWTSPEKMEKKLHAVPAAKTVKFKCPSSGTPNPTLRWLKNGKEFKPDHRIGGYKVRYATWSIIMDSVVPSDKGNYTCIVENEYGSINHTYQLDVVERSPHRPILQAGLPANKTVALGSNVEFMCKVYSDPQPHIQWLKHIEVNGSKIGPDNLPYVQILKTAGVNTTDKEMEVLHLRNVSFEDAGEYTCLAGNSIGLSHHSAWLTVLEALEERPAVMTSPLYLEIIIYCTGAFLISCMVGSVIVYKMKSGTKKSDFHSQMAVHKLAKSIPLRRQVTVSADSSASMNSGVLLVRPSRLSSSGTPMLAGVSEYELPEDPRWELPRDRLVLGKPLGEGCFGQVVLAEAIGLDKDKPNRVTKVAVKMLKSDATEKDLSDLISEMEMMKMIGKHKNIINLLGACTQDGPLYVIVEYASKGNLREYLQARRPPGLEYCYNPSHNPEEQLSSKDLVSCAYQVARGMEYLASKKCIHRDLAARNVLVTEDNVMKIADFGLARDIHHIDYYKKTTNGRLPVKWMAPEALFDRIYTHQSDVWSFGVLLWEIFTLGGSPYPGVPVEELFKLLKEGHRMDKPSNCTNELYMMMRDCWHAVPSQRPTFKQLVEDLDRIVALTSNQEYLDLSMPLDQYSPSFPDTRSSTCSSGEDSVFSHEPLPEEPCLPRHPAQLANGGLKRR

B1: mAb #A02 in the IgG1 format (antibody, V domains shown)
VH: QVQLQESGPGLVKPSGTLSLTCAVSGGSISSNNWWSWVRQPPGKGLEWIGEIYHSGSTSYNPSLKSRVTISVDKSKNQFSLKLSSVTAADTAVYYCARATDWFDLWGQGTLVTVSS
VL: SYVLTQPPSVSVAPGQTARITCGGNNIGSESVHWYQQKPGQAPVLVVYDDSDRPSGIPERFSGSNSGNTATLTISRVEAGDEADYYCQVWDSTSDHRVFGGGTKLTVL
For the molecule B1, the binding result in [1] and in experiment [2] was “binds” throughout.

B2: mAb #D01 in the IgG1 format (antibody, V domains shown)
VH: B1 VH with L105H
VL: SYVLTQPPSVSVAPGQTARITCGGNNIGSESVHWYQQKPGQAPVLVVYDDSDRPSGIPERFSGSNSGNTATLTISRVEAGDEADYYCQVWDSTSDHRVFGGGTKLTVLG
In experiment [3], B2 returned an EC50 of 0.015 nM.

B3: #A08 lead IgG1 antibody (bivalent) (antibody, V domains shown)
VH: B1 VH with Q1E, A99G, L105P
VL: B2 VL
notes: also called lgG1 (bivalent) format of #A08; #A08 lead-lgG1 m3 antibody
B3 showed an EC50 in experiment [4] of 8 pM.

B4: mAb #A08 (#A08 hit), anti-FGFR1 antibody (antibody, V domains shown)
VH: B1 VH with Q1E, S84N, A99G, L105P
VL: B1 VL with S1Q, Y2A
notes: also called imAb #A08; clone #A08
Consider B4, for which the results for the Kd in [5] and in experiment [6] were 0.017 nM and 0.01 nM, respectively. In addition, in experiment [7], the “IC50 of inhibition of FGF1-induced pFGFR1 in NCI-H520 cells” value was determined as 4 nM. For the same molecule, the “IC50 of inhibition of FGF2-induced pFGFR1 in NCI-H520 cells” value in experiment [7] was determined as 0.2 nM.

B5: mAb #C01 in the IgG1 format (antibody, V domains shown)
VH: B1 VH with L105A
VL: B1 VL
On to B5, for which the binding result in [1] and in experiment [2] was “binds” in each case.

B6: mAb #A05 (#A05 hit), anti-FGFR1 antibody (antibody, IgG1, V domains shown)
VH: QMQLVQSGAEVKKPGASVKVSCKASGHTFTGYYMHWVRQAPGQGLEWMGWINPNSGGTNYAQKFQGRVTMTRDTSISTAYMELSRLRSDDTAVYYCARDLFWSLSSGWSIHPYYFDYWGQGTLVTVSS
VL: QSALTQPASVSGSPGQSITISCTGTSSDVGSYNLVSWYQQHPGKAPKLMIYGGSKRPSGVPDRFSGSKSDTSASLTISGLQAEDEADYYCCSYTYNGDVFGTGTKVTVL
notes: also called imAb #A05
With B6, the binding result in experiment [8] is given as “no binding”. The binding result in [9] is listed as “binds”. Further, in experiment [5], the dissociation constant Kd was determined as 0.01 nM. Besides, in [7], the “IC50 of inhibition of FGF1-induced pFGFR1 in NCI-H520 cells” value is 1 nM and the “IC50 of inhibition of FGF2-induced pFGFR1 in NCI-H520 cells” value worked out at 1 nM.

B7: monovalent SEEDbody #A08 (antibody)
heavy: EVQLQESGPGLVKPSGTLSLTCAVSGGSISSNNWWSWVRQPPGKGLEWIGEIYHSGSTSYNPSLKSRVTISVDKSKNQFSLKLSSVTAADTAVYYCARGTDWFDPWGQGTLVTVSSASTKGPSVFPLAPSSKSTSGGTAALGCLVKDYFPEPVTVSWNSGALTSGVHTFPAVLQSSGLYSLSSVVTVPSSSLGTQTYICNVNHKPSNTKVDKRVEPKSCDKTHTCPPCPAPELLGGPSVFLFPPKPKDTLMISRTPEVTCVVVDVSHEDPEVKFNWYVDGVEVHNAKTKPREEQYNSTYRVVSVLTVLHQDWLNGKEYKCKVSNKALPAPIEKTISKAKGQPFRPEVHLLPPSREEMTKNQVSLTCLARGFYPKDIAVEWESNGQPENNYKTTPSRQEPSQGTTTFAVTSKLTVDKSRWQQGNVFSCSVMHEALHNHYTQKTISLSPG
chain: EPKSSDKTHTCPPCPAPELLGGPSVFLFPPKPKDTLMISRTPEVTCVVVDVSHEDPEVKFNWYVDGVEVHNAKTKPREEQYNSTYRVVSVLTVLHQDWLNGKEYKCKVSNKALPAPIEKTISKAKGQPREPQVYTLPPPSEELALNELVTLTCLVKGFYPSDIAVEWLQGSQELPREKYLTWAPVLDSDGSFFLYSILRVAAEDWKKGDTFSCSVMHEALHNHYTQKSLDRSPG
light: SYVLTQPPSVSVAPGQTARITCGGNNIGSESVHWYQQKPGQAPVLVVYDDSDRPSGIPERFSGSNSGNTATLTISRVEAGDEADYYCQVWDSTSDHRVFGGGTKLTVLGQPKAAPSVTLFPPSSEELQANKATLVCLISDFYPGAVTVAWKADSSPVKAGVETTTPSKQSNNKYAASSYLSLTPEQWKSHKSYSCQVTHEGSTVEKTVAPTECS
Take B7: in experiment [7], the “IC50 of inhibition of FGF1-induced pFGFR1 in NCI-H520 cells” value stood at 70 nM; the “IC50 of inhibition of FGF2-induced pFGFR1 in NCI-H520 cells” value was found to be 6 nM; the “IC50 of inhibition of pFGFR1 in NCI-H520 cells in the absence of ligand” value amounted to 20 nM; the “fold change of pFGFR1 inhibition IC50, monovalent against bivalent format” value is ~10 fold.

A word on the EC50: it is the concentration needed to bring the measured effect to its halfway point. A word on the Kd: it is the equilibrium constant for the complex coming apart. Low values mean a tighter complex, high ones a looser complex.
